Here are results for 41 sequences from the nanobody polyreactivity screen of Harvey et al. (2022).

A short description of this data set: yeast display, Sf9 membrane polyspecificity reagent, FACS + sequencing; frameworks hold sequencing errors. The method in brief:
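A synthetic nanobody library was expressed on Saccharomyces cerevisiae BJ5465 by galactose induction for 36–48 hours. The library was stained for 1 hour at 4 °C with 10% biotinylated, detergent-solubilized Sf9 membrane reagent and enriched with streptavidin microbeads before FACS. Low and high (top ~1%) gates were set on anti-HA fluorescence for expression and streptavidin fluorescence for reagent binding, and each polyreactivity label reflects the gate of origin.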
As to “QVQLEESGGGLVQAGGSLRLSCAASGSIFSGYTMGWYRQAPGKERELVAGISYRGGSTYYADSVKGRFTISRDNAKNTVYLQMNSLKPEDTAVYYCAARVWWRYEYWGQGTQVTVSS”, the “polyreactivity (PSR sort gate)” value is given as “high polyreactivity”. The value for “QVQLEESGGGLVQAGGSLRLSCAASGSIFSYNAMGWYRQAPGKERELVAAISRGSGSTYYADSVKGRFTISRDNAKNTVYLQMNSLKPEDTAVYYCATRSIRVLPDVYRKADDYWGQGTQVTVSS” was “low polyreactivity”; that for “QVQLEESGGGLVQAGGSLRLSCAASGSIFVGNVMGWYRQAPGKERELVAAITYSGGSTYYADSVKGRFTISRDNAKNTVYLQMNSLKPEDTAVYYCAKPSRVSIGYDYWGQGTQVTVSS” was “low polyreactivity”. The value for “QVQLEESGGGLVQAGGSLRLSCAASGSIFVYYGMGWYRQAPGKERELVAAISSGGSTHYADSVKGRFTISRDNAKNTVYLQMNSLKPEDTAVYYCNARAYGNGLGTGYFGKHRYDYWGQGTQVTVSS” was “low polyreactivity”; that for “QVQLEESGGGLVQAGGSLRLSCAASGSIFWGYAIGWYRQAPGKERELVAAISNTGSTNYADSVKGRFTISRDNAKNTVYLQMNSLKPEDTAVYYCNASYTYGEMDYWGQGTQVTVSS” was “low polyreactivity”. Regarding “QVQLEESGGGLVQAGGSLRLSCAASGSIFYLNDMGWYRQAPGKEREFVAAIDSRGTSTYYADSVKGRFTISRDNAKNTVYLQMNSLKPEDTAVYYCAADSYALEYDYWGQGTQVTVSS”, the “polyreactivity (PSR sort gate)” value is given as “low polyreactivity”. Turning to “QVQLEESGGGLVQAGGSLRLSCAASGSIFYSYAMGWYRQAPGNERELVAAITRGGSTYYADSVKGRFTISRDNAKNTVYLQMNSLKPEDTAVYYCAADSQYGWPEYEYDYWGQGTQVTVSS”, the “polyreactivity (PSR sort gate)” value is “low polyreactivity”. In the case of “QVQLEESGGGLVQAGGSLRLSCAASGSILPDYVMGWYRQAPGKERELVAAISWSDGSTYYADSVKGRFTISRDNAKNTVYLQRNSLKPEDTAVYYCAAEVWDYYYGCYADDYWGQGTQVTVSS”, the “polyreactivity (PSR sort gate)” value is reported as “low polyreactivity”. On to “QVQLEESGGGLVQAGGSLRLSCAASGSILRRYAMGWYRQAPGKEREFVAAMSYSGSRTYYADSVKGRFTISRDNAKYTVYLQMYSLKPEDTAVYYCAADSYGSRYEYWGLGTQVTVSS”, for which the “polyreactivity (PSR sort gate)” value is “high polyreactivity”.

On to “QVQLEESGGGLVQAGGSLRLSCAASGSILTDNAMGWYRQAPGKERELVAANSYSGASTYYADSVKGRFTISRDNAKNTVYLQMNSLKPEDTAVFYCAARYVSATPQLKARVRYYYWGQGTQVTVSS”, for which the “polyreactivity (PSR sort gate)” value is given as “high polyreactivity”. With “QVQLEESGGGLVQAGGSLRLSCAASGSILVIYTMGWYRQAPGKERELVAGINYSGGRTYYADSVKGRFTISRDNAKNTVYLQMNSLKPEDTAVYYCSADYYFLDWYDYWGQGTQVTVSS”, the “polyreactivity (PSR sort gate)” value is recorded as “low polyreactivity”. With “QVQLEESGGGLVQAGGSLRLSCAASGSILVKYAMGRYRQAPGKERELVASITSTGNTYYADSVKGRFTISRDNAKNTVYLQMNSLKPEDTAVYYCAADAAFTYVYFQSDGYNYWGQGTQVTVSS”, the “polyreactivity (PSR sort gate)” value is “low polyreactivity”. Take “QVQLEESGGGLVQAGGSLRLSCAASGSILVRYAMGWYRQAPGKERELVAAITYSVGSTYYADSVKGRFTISRDNAKNTVYLQMNSLKPEDTAVYYCAASGGTEVLLMDYWGQGTQVTVSS”: the “polyreactivity (PSR sort gate)” value is “low polyreactivity”.

As to “QVQLEESGGGLVQAGGSLRLSCAASGSISSFNTMGWYRQAPGKERELVAAITRDGSTYYADSVKGRFTISRDNAKNTVYLQMNSLKPEDTAVYYCAARGWYATWLYYYWGQGTQVTVSS”, the “polyreactivity (PSR sort gate)” value is on record as “high polyreactivity”. In the case of “QVQLEESGGGLVQAGGSLRLSCAASGSTFDVYAMGWYRQAPGKERELVAAIRSSGGSTFYADSVKGRFTISRDNAKNIVYLQMNSLKPEDTAVYYCAARSFVVSGYNKYYEYGYWGQGTQVTVSS” it was “low polyreactivity”; in that of “QVQLEESGGGLVQAGGSLRLSCAASGSTFFIYAMGWYRQAPGKERELVAVIRNIDVRTYYADSVKGRFTISRDNAKNTVYLQMNSLKPEDTAVYYCAADELLDESVDMYYWGQGTQVTVSS”, “low polyreactivity”; in that of “QVQLEESGGGLVQAGGSLRLSCAASGSTFGKNAMGWYRQAPGKERELVASITWRGGSTYYADSVKGRFTISRDNAKNTVYLQMNSLKPEDTAVYYCAADYVVSAFDYWGQGTQVTVSS”, “low polyreactivity”.

For “QVQLEESGGGLVQAGGSLRLSCAASGSTFKTYASGWYRQAPGKERELVAAISWSGGSTYYAESVKGRFTISRDNAKNTVYLQMNSLKPEDTAVYYCNAGWGYPSPWFIGEYWGQGTQVTVSS”, the “polyreactivity (PSR sort gate)” value is on record as “low polyreactivity”. In the case of “QVQLEESGGGLVQAGGSLRLSCAASGSTFRDYAMGWYRQAPGKQRELVAAITSGGSTNYADSVKGRFTISRDNAKNTVYLQMNSLKPEDTAVYYCNARYAGWYTPWGRQSVYSDDYWGQGTQVTVSS” it was “low polyreactivity”; in that of “QVQLEESGGGLVQAGGSLRLSCAASGSTFSYYAKGWYRQAPGKERELVAVISRGGSTNYADSVKGRFTISRDNAKNTVYLQMNSLKPEDTAVYYCAADAIPDSVRYWEYDYWGQGTQVTVSS”, “low polyreactivity”; in that of “QVQLEESGGGLVQAGGSLRLSCAASGSTFTPNAMGWYRQAPGKEREFVAGIDWNDGSTYYADSVKGRFTISRDNAKNTVYLQMNSLQPEDTEVYYCNAQWVSWWSLYDYWGQGTQVTVSS”, “high polyreactivity”. In the case of “QVQLEESGGGLVQAGGSLRLSCAASGSTFTRYAMGWYRQAPGKERELVAAISRGGSTNYADSVKGRFTISRDNAKNTVYLQMNSLKPEDTAVYYCAARSWYLRYDYWGQGTQVTVSS” it was “high polyreactivity”; in that of “QVQLEESGGGLVQAGGSLRLSCAASGSTFVYNAMGWYRQAPGKEMELVAAISRRGGSTYYADSVKGRFTISRDNAKNTVYLQMNSLKPEDTAVYYCAADPSYYTYFSFDLSESDYWGQGTQVTVSS”, “low polyreactivity”.

With “QVQLEESGGGLVQAGGSLRLSCAASGSTFYINAMGWYRQAPGKERELVAAITWRGGRTYYADSVKGRFTISRDNAKNTVYLQLNSLKPEDTAVYYCAAKVRWHRGTSSYYYWGQGTQVTVSS”, the “polyreactivity (PSR sort gate)” value is “high polyreactivity”. In the case of “QVQLEESGGGLVQAGGSLRLSCAASGSTYWLYPMGGYRQATGKERELVATISERGGSTYYADSVKGRFTISRDNAKNTVYLQMNSLKPEDTAVYYCAAHVYGSWPDYDYWGQGTQVSVSS” it was “low polyreactivity”. In the case of “QVQLEESGGGLVQAGGSLRLSCAASGYTFESYPMGWYRQAPGKEREFVAVISSSDTSTSYADSVKGRFTISRDNAKNTVYLQMNSLNPEDTAVYYCAAYSSPYYITYYWYNYDYWGQGTQVTVSS” it was “low polyreactivity”. The value for “QVQLEESGGGLVQAGGSLRLSCAASGYTFRGNARGWYRQAPGKERELVASISYSGGTTYADSVKGRFTISRDNAKNTVYLHRNSLKQEDTAVYYCNAAGFYYLYSHRQYEFWGQGTQLTVSS” was “low polyreactivity”. Turning to “QVQLEESGGGLVQAGGSLRLSCAASGYTSLYYGMGWYRQAPGKERELVASISRGGSTYADSVKGRFTISRDNAKNTVYLLMNRLKPEDTAVYYCNADGGWDDPWSGWVEYDYWGQGTQVTGSS”, the “polyreactivity (PSR sort gate)” value was “low polyreactivity”. In the case of “QVQLEESGGGLVQAGGSLRLSCAASVFTFSRYAMGWYRQAHGKVREIVAAISYRGGSTYADSVKGRFTISRDNAKNTVYLQMNSLKPEDTAVYYCAALRWGTDVWRRRIGSLLMGYSGQGTQVTVSS” it was “high polyreactivity”; in that of “QVQLEESGGGLVQAGGSLRLSCAATGILRLNAIGWYRHAPGKEREFVATISRSGGITYYADSVKGRFTISRDNAKNTVYLQMNSLKPEDTAVYYCAKGGYSLYGYWGQGTQVTVSS”, “high polyreactivity”. Turning to “QVQLEESGGGLVQAGGSLRLSCAAYGGIFGYYPMGWYRQATGKERELVAAINYSGGSTYYADSVKGRFTISRDNSKNTVYLQMNSLKPEVTAVYYCAKRSYGGTLHYAFDSWGQGTQVTVSS”, the “polyreactivity (PSR sort gate)” value is listed as “low polyreactivity”. “QVQLEESGGGLVQAGGSLRLSCAAYGSTFSYNAMGGSRPAPGTQRELVAAITSSGSSTYYADSVKGRFTISRYNAKNTVYFQMNSLKPEDTAVYYCNAEVLFVAGQVQRNSGDYWGQGTQVTVSS”: the “polyreactivity (PSR sort gate)” value is “low polyreactivity”. In the case of “QVQLEESGGGLVQAGGSLRLSCAAYYAMGWYRQAPGKERELVAAISSTGRTNYADSVKGRFTISRDNAKNTVYLQMNSLKPEDTAVYYCNAGDRSGMEYWGQGTQVTVSS” it was “low polyreactivity”; in that of “QVQLEESGGGLVQAGGSLRLSCADSGSTLYWNAMGWYRQAPGKERELVAVISESGGTTYYADSVKGRFTISRDNAKNTVYLQMNSLKPEDTAVYYCAAVWYYQFGVWGYYWGQGTQVTVSS”, “low polyreactivity”.

Turning to “QVQLEESGGGLVQAGGSLRLSCPPSGSTYYVYAMGWYRPAPGKERELVAAIDGGDTYYADSVKGGFTISRDNAMNTVFLQMNSLKPEDTAVYYCAAESLPEISVGLGFWGQGTQVTVSS”, the “polyreactivity (PSR sort gate)” value is “low polyreactivity”. Regarding “QVQLEESGGGLVQAGGSLRLSFAASGYTFDPYDMGWYRQAPGKERELVASISWSGGDTYYADSVKGRFTISRDNAKNTVYLQMNSLKPEDTAVYYCAADRYIPRSIIMDYWGQGNQVTVSS”, the “polyreactivity (PSR sort gate)” value is “low polyreactivity”. As for “QVQLEESGGGLVQAGGSLRLSSAASGGTFRPYAMGWYRQAPGKERELVATIRSSGGRTYYADSVKGRFTISRDNAKNTVYLQMTSLKPEDTAVYYCAKRAQTYYGYDYWGQGTQVTVSS”, the “polyreactivity (PSR sort gate)” value was “high polyreactivity”. Take “QVQLEESGGGLVQAGGSLRLSWAASGITFAYYAMGWYRQAPGKERELVAAINYNGGRTYYADSVKGRFTISRDNAKNTVYLQMNSLKPEDTAVYYCAARGYRHFYYWGQGTQVTVSS”: the “polyreactivity (PSR sort gate)” value is “high polyreactivity”. In the case of “QVQLEESGGGLVQAGGSLRLTCAASGRIFFQNTIGWYRQAPGQERELVAAITSDGSTYYADSVKGRFTISRDNAKNTVYLQMNSLKPEDTAVYYCAAEISYRWWYKLGFTSFDYWGQGTQVTVSS” it was “low polyreactivity”.

As to “QVQLEESGGGLVQAGGSLRLTCAASGRTFDFYAMGWYRQAPGKEREFVAAITFSTGSTTYADSVKGRFTISRDNAKNTVYLQMNSLKPEDTAVYYCNADAFNKISYVWYDYWGQGTQVTVSS”, the “polyreactivity (PSR sort gate)” value is “low polyreactivity”. The value for “QVQLEESGGGLVQAGGSLRLTCAATGRIYFYGMGRYRQAPGNERELVATITSVSNTYYADSVKGRFTKSRDNAKNTVYLVMNSLKPEETAVYYCAAVTRGNWVYYWGQRTQVTVSS” was “high polyreactivity”.
